Assay: yeast display, Sf9 membrane polyspecificity reagent, FACS + sequencing; frameworks hold sequencing errors
Procedure, shortened: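 Galactose induction of a Saccharomyces cerevisiae BJ5465 synthetic nanobody display library ran 36–48 hours. The cells were then stained for 1 hour at 4 °C with 10% biotinylated, detergent-solubilized Sf9 membrane reagent, pulled down on streptavidin microbeads and FACS-sorted into low and high (top ~1%) gates on expression and reagent-binding fluorescence. Labels for polyreactivity follow the gate of origin.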

Row | Sequence | polyreactivity (PSR sort gate)
1 | QVQLVESGGGLVQAGGSLRLSCAASGFTLARYAMGWYRQAPGKERELVAAITKRGGSTYYADSVKGRFTISRDNAKNTVYLQMNSLKPEDTAVYYCATYKRSSHYDYWGQGTQVTVSS | high polyreactivity
2 | QVQLVESGGGLVQAGVSLRISCAASVRTFSRYTMGWYRPAPGKERELVAANSGDGASTYYADSVKGRFTISRDNAKYSVYLQMYSLKPEDTAVYYCAARGTRYWDYRYYAYNYWGQGTQVTVSS | high polyreactivity
3 | QVQLVESGGGLVQAGGSLRLSCAASGSTFYRNAMAWYRQAPGKERELVAAISSTGGSTYYADSVKGRFTISRDNAKNTVYLQMNSLKPEDTAVYYCAVDPGLTKGFGYWGQGTQVTVSS | low polyreactivity
4 | QFQLVESGGGLVQAGGSLRISCAASGSIFRRYAMGWYRQAPWKERELVATISSGTTTNYADSVKGRFTISRDNANNSVYLQLNSLKPEDTSVFYCAAVVYGHIRGPGERKSYWGQGTQVTVSS | high polyreactivity
5 | QVQLVESGGGLVQAGGSLRLSCDASGRTFIGYAMGWYRQAPGKERELVAAINWSGARTYYADSVKGRFTISRDNAKNTVYLQMNSLKPEDTAVYYCAAVPVTSQTKYGYWGQGTQVTVSS | high polyreactivity
6 | QVQLVESGGGLVQAGGSLRLSCAASGSTFYANPMGWYRQAPGKERELLAAITSGGSTNYADSVKGRFTISRDNAKITVYLQMISLKPEDTAVYYCATQVNRERHAEDYWGQGTQVTVSS | low polyreactivity
7 | QVQLVESGGGLVQAGGSLRLSCAASGNIFRINGMGWYRQAPGKERELVAAISFSGGSTYYADSVKGRFTISRDNAKNTVYLQMNSLKPEDTAVYYCNADSTKGWYHDYDYWGQGTQVTVSS | low polyreactivity
8 | QVQLVESGGGLVQAGGSLRLSCAASGSTFDKYPLGWYRQAPGKERELVAAITWGGGSTYYADSVKGRFTISRDNAKNTVYLQMNSLKPEDTAVYYCAAEQGSSVLYDSWGQGTQVTVSS | low polyreactivity
9 | QVQLVESGGGLVQAGGSLRLSCAASGSIFRNNTMGWYRQAPGKERELVAAISGRGTRTSYADSVKGRFTISRDNAKNTVYLQMNSLKPEDTAVYYCAAVYYWRPGWYVRFDYWGQGTQVTVSS | low polyreactivity
10 | QVQLVESGGGLVQAGGSLRLSCAASGSTFHTYGMGWYRQAPGKERELVSAIDLSDGSTYYADSVKGRFTISRDNAKNTVYLQMNSLKPEDTAVYYCNADYFPKPYRPDDYWGQGTQVTVSS | low polyreactivity
11 | QVQLVESGGGLVQAGGSLRLSCAASGRTFGTNTMGWYRQAPGKEREFVATITSSGGSTYYADSVKGRFTISRDNAKNTVYVQINSLKPEATAVYYCATDPYGGNTLYPSLRYDYWGQGTQVTVSS | low polyreactivity
12 | QVQLVESGGGLVQAGGSLRLSCAASGRTFVRNAMGWYRQAPGKERELVAAISKSGGITYYADSVKGRFTISRDTAKNTVYLQMNSLKPEDTAVYYCAKRTSYYRSGWSHYGYWGQGTQVTVSS | high polyreactivity
13 | QVQLVESGGGLVQAGGSLRLSCAASGFIFDVYAMGWYRQAPGKERELVAAITGSGSITYYADSVKGRFTISRDNAKNTVYLQMNSLKPEDTAVYYCAALGPTQDRDYWGQGTQVTVSS | high polyreactivity
14 | QVQLVESGGGLVQAGGSLRLSCAASGSIFGFYAMGWYRQAPGKERELVASITISGGSTYYADSVKGRFTISRDNAKNTVYLQLNSLKPEDTAVYYCAARRFWDYNYWGQGTQVTVSS | low polyreactivity
15 | QVQLVESGGGLVQAGGSLRLSCAASGSIFTDYAMGWYRQAPGKERELVATITWSDASTYYTDSVKGRFTISRDNAKNTVYLQMNSLIPEDTAVYYCARRSRYSKGYDYWGQGTQVTVSS | low polyreactivity
16 | QVQLVESGGGLVQAGGSIRLSCAASGNTFRYYAMGWYRQAPGKERELVAGISRRGGSTYYADSVKGRFTISRDNAKNTVYLQMNSLKPEDTAVYYCNAVGGNGAVVAYGYWGQGTQVTVSS | high polyreactivity

Row | Sequence | polyreactivity (PSR sort gate)
17 | QVQLVESGGGLVQAGGSLRLSCAASGSTSQPYDMGWYRQAPGTERELVASITNGGSTNYADSVKGRFTISRDNAKNTVYLQMNSLNPEDTAVDYCATRNGYSGTYGYWGQGTQVTVSS | low polyreactivity
18 | QVQLVESGGGLVQAGGSLRLSCAPSGITFQRYVMGWYRQAPGKERELVAAISFSGSSTYYADSVKGRFTISRDNAKNTVYLQMNSLKPEDTAVYYCAADGSVPKYVPYPRYYGYGYWGQGSQVTVSS | high polyreactivity
19 | QVQLVESGGGLVQAGGSLRLSCAASVITFWIYAMGWYRQAPGKERELVAAITGRGGSTYYADSVKGRFTISRDNAKNTVYLQLNSLKPEDTAFYYCAAESWYSTYDYWGQGTQVTVTS | high polyreactivity
20 | QVQLVESGGGFVQAGGSLRLSCAASGRIFGVYALGWYRPAPGKERELVAAISYSGGSTYYADSVKGRFTISRVNAKNTVYLQMNSLKPEDTAVYYCAAKIFPKGDYWGQGTQVTVSS | high polyreactivity
21 | QVQLVESGGGLVQAGGSLRLSCAASGLIFPFYTMGWYRQAPGKERELVAAISYSGGSTYYADSVKGRFAISRDNAKNTVYLQMNSLKPEDTAVYYCAKSYRTTYHFWSGYDYWGQGTQVTVSS | low polyreactivity
22 | QVQLVESGGGLVQAGGSLRLSCAASGFIFGYNALGWYRQAPAKERELVAAITWIGGTTYYADSVKGRFTISRDNAKNTVYLQLNSLKPEDTAVYYCARQRSFGRSSYSHRYDYWGQGNQVTVSS | high polyreactivity
23 | QVQLVESGGGLVQAGGSLRLSCDASGLTFAYYAMGWYRQEPGKERELVADISWNGGRTYYSDSVKGRFTISGYNAKNTVYLQMNSLKPEDSAVYYCAAQVTSSFYWGQGTQVTVSS | high polyreactivity
24 | QVQLVESGGGLVQAGGSLRLSCAASGFTFKYNAMGWYRQAPGKERELVASISSGSTNYADSVKGRFTISRDNAKNTVYLQMNSLKPEDTAVYYCAASVSRGKRFRYGYVFKLDYWGQGTQVTVSS | low polyreactivity
25 | QVQLVESGGGLVQAGGSLRLSCAASGSTFVRNAMGWYRQAPGKERELVAAISRSGGRTYYADSVKGRFTISRDNAKNTVYLQMNSLKPEDNAVYYCNAVLGYYSYDYWGQGTQVTVSS | high polyreactivity
26 | QVQLVESVGGLVQAGGSLRLSCAASGNIFYSYDMGWYRQAPGKERELVATISYRGTSTNYADSVKGRFTISRDNAKNTVYLQMNSLKPEDTAVYYCASDRGSHFARGSAYDYWGQGTQVTVSS | low polyreactivity
27 | QVQLVESGGGLVQAGGSLRLSCAASGRTFDGYAMGWSRQAPGKERELVAAINRSGGNTYYADSVKGRFTISRDNAKNTVYLQMNSLNPVDTAVYYCAADGWTSIGVPDYQHDYWGQGTQVTVSS | high polyreactivity
28 | QVQLVESGGGLVQAGGSLRLSCAASGRIFVGYAMGWYRQAPGKETELVAAISRDGDNTFYADSVKGRFTISRDNAKNTVYLQMNSLKPEDTAVYYCAVDYWVWYGSAYAYDYYWGQGTQVTVSS | low polyreactivity
29 | QVQLVESGGGLVQAGGSLRLSCAASGSIFSLYVMGWYRQAPGKERELGAAITSGGRTNYADSVKGRFTISRDNAKNTVYLLMNSLKPEDTAVYDCAARFPSRYGRYGYWGQGTQVTVSS | high polyreactivity
30 | QVQLVESGGGIVQAGGSLRLSCAASGLTFYVYAMGWYREAPGKEREFVAAITWSGGSTYYADSVKGRFTISRDNAKNTVYLQMNSLKPEDTAVYYCAAETLWSELYYWGQGTQVTVSS | high polyreactivity
31 | QVQLVESGGCLVQAGGSLRLSCAASGFTFRWYTMGWYRQAPGKERELVAAITGSGCTTYYADSVKGRFTISRDNAKNTVYLQMNSVKPEDTAVYYCAAQYFPSRGWSKGYDYWGHGTQVTVSS | high polyreactivity
32 | QVQLVESGGGLVQAGGSLRLSCAASGRILSYYAMGWYRQAPGKERELVARITGRGGSTYYADSVKGRFTISRDNAKNTVYLQMNSLKPEDTAVYYCAAVPWVVYSGYDYWGQGTQVTVSS | low polyreactivity

Reference: the nanobody polyreactivity screen of Harvey et al. (2022)
